Test results taken from the supplement of paper PMC10567573.

B1: PPEF2 (parent)
chain: DHSGFISLDEFRQTWKLFSSHMNI
B2: P2RY14 (parent)
chain: KKIFKSHLKSSRNSTSVKKKSSRN
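Note: lentivirally expressed fusions sorted by FACS into six bins by GFP to DsRed ratio, PSI derived from sequencing read proportions per bin multiplied by bin number.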

Variants of: B1
Experiment: protein stability index of a GFP-peptide fusion (GPS, HEK-293T) (PSI 1-6); higher = more stable
Settings: c terminus: a fixed tail appended
For W15R, the protein stability index was 1.62. Work on E10A yielded a protein stability index of 2.48. In the case of I24K, the protein stability index is reported as 1.79. F5A gave a protein stability index of 1.33. Q13W gave a protein stability index of 2.52. D9G showed a protein stability index of 2.82. In the case of H2P, the protein stability index is reported as 2.32. G4A showed a protein stability index of 2.89. K16N showed a protein stability index of 1.69. L8S gave a protein stability index of 1.75. S20K gave a protein stability index of 1.81. W15Q gave a protein stability index of 2.25. In the case of N23C, the protein stability index is reported as 2.72. For L17I, the protein stability index was 3.24. Work on S7R yielded a protein stability index of 2.1. I6G gave a protein stability index of 1.28. Work on H2R yielded a protein stability index of 1.34. In the case of G4S, the protein stability index is reported as 1.51. Work on Q13F yielded a protein stability index of 3.91. S3G gave a protein stability index of 1.97. With S3T the protein stability index was 2.62. I24H showed a protein stability index of 1.7. F11L showed a protein stability index of 3.54. Work on R12Y yielded a protein stability index of 2.69. Variant F18A has a protein stability index of 1.96. F5S gave a protein stability index of 1.85. F11S showed a protein stability index of 1.68. For H21M, the protein stability index was 1.49. Variant L17M has a protein stability index of 2.63. Variant T14W has a protein stability index of 1.39. H2W showed a protein stability index of 1.82. In the case of L8K, the protein stability index is reported as 1.97. Variant L8W has a protein stability index of 2.06. In the case of F5C, the protein stability index is reported as 1.66. With F11T the protein stability index was 1.74. H2L gave a protein stability index of 1.25. Variant D1I has a protein stability index of 3.63. In the case of G4K, the protein stability index is reported as 1.31. S19D gave a protein stability index of 1.56. With F18P the protein stability index was 1.96. For I24W, the protein stability index was 2.35. Work on R12H yielded a protein stability index of 1.86. With M22Y the protein stability index was 2.21. S20E gave a protein stability index of 2.43. I6H showed a protein stability index of 1.71. N23K gave a protein stability index of 1.96. In the case of S7E, the protein stability index is reported as 1.86. Variant S3N has a protein stability index of 1.99. With I24C the protein stability index was 1.55. R12K showed a protein stability index of 1.89. With K16T the protein stability index was 3.38. For L8V, the protein stability index was 2.74. R12M showed a protein stability index of 2.38. With W15E the protein stability index was 1.96. In the case of W15G, the protein stability index is reported as 1.84. Variant Q13S has a protein stability index of 2.13. Variant K16P has a protein stability index of 2.07. Variant M22T has a protein stability index of 1.6. In the case of N23E, the protein stability index is reported as 2.82. In the case of F18G, the protein stability index is reported as 2.48. Variant T14L has a protein stability index of 1.66. With D9W the protein stability index was 2.75. With I24F the protein stability index was 1.9. Variant G4I has a protein stability index of 2.78. Work on F5Y yielded a protein stability index of 2.35. Work on T14Q yielded a protein stability index of 2.08. S7D showed a protein stability index of 1.47. In the case of S19W, the protein stability index is reported as 1.87. H21T showed a protein stability index of 2.09. Work on E10M yielded a protein stability index of 2.26. Work on R12S yielded a protein stability index of 2.04. F11Q showed a protein stability index of 1.56. Variant F18Q has a protein stability index of 1.72. Work on F5N yielded a protein stability index of 2.13. With S19I the protein stability index was 2.22. In the case of L8E, the protein stability index is reported as 1.85. With S20W the protein stability index was 3.78. In the case of D1F, the protein stability index is reported as 2.27. Work on S19V yielded a protein stability index of 2.26. H2E gave a protein stability index of 1.44. I24S showed a protein stability index of 1.58. L17T showed a protein stability index of 1.88. T14Y gave a protein stability index of 1.49. Work on F18V yielded a protein stability index of 1.91. Variant N23R has a protein stability index of 1.31. For F18C, the protein stability index was 2.02. S20M gave a protein stability index of 2.81. For D9E, the protein stability index was 2.29. In the case of D9I, the protein stability index is reported as 3.32. S19R showed a protein stability index of 1.7. Work on S19Q yielded a protein stability index of 2.02. In the case of K16D, the protein stability index is reported as 1.71. With Q13T the protein stability index was 3.18. D1Q showed a protein stability index of 2.4. For H21E, the protein stability index was 2.06. For S19C, the protein stability index was 1.54. M22P gave a protein stability index of 2.6. For L17C, the protein stability index was 1.59. M22G showed a protein stability index of 2.17. With I6N the protein stability index was 1.6. H2A showed a protein stability index of 2.35. S7Q showed a protein stability index of 1.79. In the case of I6M, the protein stability index is reported as 2.32. With T14N the protein stability index was 1.91. L17K showed a protein stability index of 1.81. With K16V the protein stability index was 2.6. For D9Q, the protein stability index was 2.2. H2V showed a protein stability index of 1.45. Variant H21L has a protein stability index of 1.74. Work on H2I yielded a protein stability index of 1.91. For S20P, the protein stability index was 1.96. Work on K16M yielded a protein stability index of 1.01. In the case of S7T, the protein stability index is reported as 2.04. F11M showed a protein stability index of 2.14. For R12L, the protein stability index was 1.53. Work on W15P yielded a protein stability index of 1.81. Variant S3L has a protein stability index of 2.07. L17Y gave a protein stability index of 2.03. Variant S19L has a protein stability index of 1.46. With G4D the protein stability index was 1.78. D9H gave a protein stability index of 1.87. Work on T14I yielded a protein stability index of 1.83. For S3W, the protein stability index was 1.8.

Variants of: B2
Experiment: as above
Settings: c terminus: a fixed tail appended
For K1A, the protein stability index was 4.12. K1C showed a protein stability index of 3.51. Work on K1D yielded a protein stability index of 4.5. K1E gave a protein stability index of 3.97. Work on K1F yielded a protein stability index of 3.8. With K1G the protein stability index was 4.51. K1H gave a protein stability index of 4.63. With K1I the protein stability index was 2.88. With K1L the protein stability index was 3.18. In the case of K1M, the protein stability index is reported as 3.43. K1N showed a protein stability index of 4.4. K1P gave a protein stability index of 4.22. In the case of K1Q, the protein stability index is reported as 4.25. K1R showed a protein stability index of 3.42. K1S showed a protein stability index of 4.26. For K1T, the protein stability index was 4. In the case of K1V, the protein stability index is reported as 3.5. Variant K1W has a protein stability index of 2.7. Variant K1Y has a protein stability index of 3.58. With K2A the protein stability index was 3.91. Work on K2C yielded a protein stability index of 3.88. In the case of K2D, the protein stability index is reported as 4.66. For K2E, the protein stability index was 4.29. For K2F, the protein stability index was 3.63. K2G showed a protein stability index of 4.12. K2H showed a protein stability index of 4.01. K2I gave a protein stability index of 3.35. For K2L, the protein stability index was 3.2. Variant K2M has a protein stability index of 3.53. Work on K2N yielded a protein stability index of 4.13. K2P showed a protein stability index of 3.98. K2Q gave a protein stability index of 4.04. Work on K2R yielded a protein stability index of 3.88. Work on K2S yielded a protein stability index of 4.37. Work on K2T yielded a protein stability index of 4.3. K2V gave a protein stability index of 3.73. With K2W the protein stability index was 3.12. K2Y showed a protein stability index of 3.67. I3A gave a protein stability index of 4.18. For I3C, the protein stability index was 4.27. I3D showed a protein stability index of 4.95. With I3E the protein stability index was 5.07. I3F showed a protein stability index of 3.91. Work on I3G yielded a protein stability index of 4.28.
